Source: paper PMC10628517, “CXCL17 binds efficaciously to glycosaminoglycans with the potential to modulate chemokine signaling” (Frontiers in Immunology, 2023)

Target: the molecule itself
Assay: reducing SDS-PAGE and Western blot; serial dilutions of recombinant CXCL17 (24–119), 1.25–10 μM, resolved by reducing SDS-PAGE and probed with anti-CXCL17; bands of 14 kDa and 28 kDa read as monomer and dimer; the 28-kDa species seen at 5 μM and above

B1: recombinant human CXCL17 (24–119) (natural protein, UniProt Q6UXB2 24-119, looked up)
chain: LNPGVARGHRDRGQASRRWLQEGGQECECKDWFLRAPRRKFMTVSGLPKKQCPCDHFKGNVKKTRHQRHHRKPNKHSRACQQFLKQCQLRSFALPL
notes: human CXCL17, residues 24-119 (Leu24–Leu119), the commercially available form without the predicted signal peptide; UniProt Q6UXB2; The text calls the protein on the blots commercially available; also called Leu24–Leu119 form of CXCL17; source: bought: R&D Systems; produced in E. coli
B1 was tested, and the “ratio of monomer:dimer” value was ~3 monomer:dimer.
